One molecule from patent publication US20170204158A1 (Regeneron, published 2017) can be followed below.

Test [1] addresses T1, mouse IL-33 (R&D Systems, # 3626-ML-010/CF) (mouse, UniProt Q8BVZ5 109-266).
T1 construct: Commercial protein; also called mIL-33; mIL33
T1 sequence (looked up): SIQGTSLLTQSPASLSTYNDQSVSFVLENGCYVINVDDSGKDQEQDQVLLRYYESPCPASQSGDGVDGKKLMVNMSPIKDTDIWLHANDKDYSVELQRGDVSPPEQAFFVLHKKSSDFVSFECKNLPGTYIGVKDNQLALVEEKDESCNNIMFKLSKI
In words: SPR (Biacore T-200), 25 C; Fc fusion captured by anti-Fc antibody, mouse IL-33 injected. Here is the method: (§1) The Biacore sensor surface was first derivatized by amine coupling a polyclonal rabbit anti-mouse antibody (GE, # BR-1008-38) or with a monoclonal mouse anti-human Fc antibody (GE, # BR-1008-39) to capture IL-33 Trap and receptor proteins with a C-terminal mouse IgG2a Fc tag or a C-terminal human IgG1 Fc tag, respectively. Kinetic experiments were carried out in 0.01 M HEPES pH 7.4, 0.15 M NaCl, 3 mM EDTA, and 0.005% v/v Surfactant Tween-20 (HBST running buffer). Different concentrations of human IL-33, mouse IL-33 or MfIL-33-6His prepared in HBST running buffer (ranging from 60 nM to 27.4 pM, 3-fold dilutions, for Trap proteins and ranging from 60 nM to 0.25 nM, 3-fold dilutions, for ST2 receptor proteins) were injected over the captured IL-33 Trap and receptor protein surfaces at a flow rate of 50 μL/minute. Association of different IL-33 proteins to the different capture surfaces was monitored for 7 minutes for Trap proteins or 4 minutes for ST2 receptor proteins and their dissociation in HBST running buffer was monitored for 14 minutes for Trap proteins or 8 minutes for ST2 receptor proteins. Kinetic association (ka) and dissociation (kd) rate constants were determined by fitting the real-time binding sensorgrams to a 1:1 binding model using Scrubber 2.0c curve-fitting software. Binding dissociation equilibrium constants (KD) and dissociative half-lives (t½) were calculated from the kinetic rate constants as: […]
A general note: Surface plasmon resonance follows binding to a sensor surface in real time, without labels.

Test [2] addresses T2, human IL-33 (R&D Systems, # 3625-IL-010/CF) (human, UniProt O95760 112-270, biotinylated in the blocking ELISA of Example 3 (sites not given)).
T2 sequence (looked up): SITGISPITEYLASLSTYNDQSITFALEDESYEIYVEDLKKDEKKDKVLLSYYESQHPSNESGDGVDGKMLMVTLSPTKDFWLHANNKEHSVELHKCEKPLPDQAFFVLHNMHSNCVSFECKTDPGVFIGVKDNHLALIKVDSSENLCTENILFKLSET
In words: cell-based or functional assay.

For test [3], the target named is T1, mouse IL-33 (R&D Systems, # …). The test is described as follows: cell-based or functional assay.
Test [4] concerns the target T3, monkey IL-33 expressed with C-terminal hexahistidine tag (MfIL-33-6His) (cynomolgus monkey (M. fascicularis)).
T3 chain: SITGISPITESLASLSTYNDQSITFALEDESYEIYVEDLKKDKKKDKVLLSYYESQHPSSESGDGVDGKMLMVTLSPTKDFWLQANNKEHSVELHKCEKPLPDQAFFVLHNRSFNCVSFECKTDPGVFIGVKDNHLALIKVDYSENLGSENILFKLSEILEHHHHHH
In words: cell-based or functional assay.

In test [5] the target is T2, human IL-33 (R&D Systems, # …). The test is described as follows: competition ELISA; antagonist pre-mixed with 20 pM biotin-hIL-33, binding to plate-coated human ST2-Fc; highest concentration tested. Here is the method:
(§2) The ability of exemplary IL-33 antagonists of the invention to block human IL-33 (hIL-33) binding to the human ST2 receptor was measured using a competition sandwich ELISA. A portion of human ST2 protein ecto domain that was expressed with a C-terminal mouse Fc tag (SEQ ID NO:2) was coated at a concentration of 1 μg/mL in PBS buffer on a 96-well microtiter plate overnight at 4° C. […] Biotinylated hIL-33 protein (R&D systems, #3625-IL/CF) (biot-hIL-33) was added to achieve a constant final concentration of 20 pM to serial dilutions of IL-33 antagonists ranging from 0 to 100 nM. The mixture was incubated for 1 hour at room temperature (RT) before transfer to the hST2-hFc coated microtiter plates. After incubation for 1 hour at RT, the wells were then washed, and plate-bound biot-hIL-33 was detected with HRP-conjugated streptavidin (Thermo Scientific, # N200). All samples were developed with a TMB solution (BD biosciences, # 51-2607KC) to produce a colorimetric reaction and then quenched by acidification with 1M sulfuric acid before measuring absorbance at 450 nm on a Victor X5 plate reader (PerkinElmer). Data analysis was performed using a sigmoidal dose-response model within Prism™ software. […] Maximum blocking values represent the ability of the antagonists to block IL-33 binding relative to baseline. The absorbance measured at the constant amount of hIL-33 on the dose curve was defined as 0% blocking and the absorbance with no added IL-33 was defined as 100% blocking. The absorbance values of the wells containing the highest concentration tested for each antagonist were used to determine the maximum blocking percent.

Test [6] shares this target. In words: SPR (Biacore T-200), 25 C; Fc fusion captured by anti-Fc antibody, IL-33 injected. Here is the method:
as §1

Test [7] shares this target. The test is described as follows: competition ELISA; antagonist pre-mixed with 20 pM biotin-hIL-33, binding to plate-coated human ST2-Fc. The procedure:
as §2
In general terms: In an ELISA, binding on a coated surface is turned into a signal by an enzyme label.

B1: hST2-mFc (Fc fusion)
chain: KFSKQSWGLENEALIVRCPRQGKPSYTVDWYYSQTNKSIPTQERNRVFASGQLLKFLPAAVADSGIYTCIVRSPTFNRTGYANVTIYKKQSDCNVPDYLMYSTVSGSEKNSKIYCPTIDLYNWTAPLEWFKNCQALQGSRYRAHKSFLVIDNVMTEDAGDYTCKFIHNENGANYSVTATRSFTVKDEQGFSLFPVIGAPAQNEIKEVEIGKNANLTCSACFGKGTQFLAAVLWQLNGTKITDFGEPRIQQEEGQNQSFSNGLACLDMVLRIADVKEEDLLLQYDCLALNLHGLRRHTVRLSRKNPIDHHSEPRGPTIKPCPPCKCPAPNLLGGPSVFIFPPKIKDVLMISLSPIVTCVVVDVSEDDPDVQISWFVNNVEVHTAQTQTHREDYNSTLRVVSALPIQHQDWMSGKEFKCKVNNKDLPAPIERTISKPKGSVRAPQVYVLPPPEEEMTKKQVTLTCMVTDFMPEDIYVEWTNNGKTELNYKNTEPVLDSDGSYFMYSKLRVEKKNWVERNSYSCSVVHEGLHNHHTTKSFSRTPGK
notes: also called second IL-33 antagonist; ST2 receptor protein
The term Kd denotes the constant that tells how readily two partners part at equilibrium. The term koff denotes the first-order rate constant of dissociation. A word on the kon: it is a measure of how fast the partners come together. The IC50 is the concentration that inhibits the measured activity by half. Take B1: in test [1], the “60 nM Mouse IL-33 Bound (RU)” value came out at 18 RU, binding was characterised by a dissociation constant (Kd) of 0.0882 nM, the koff amounted to 0.00035 s⁻¹ and the kon worked out at 3.97e+06 M⁻¹ s⁻¹. The t1/2 in test [1] is 33 min. The “IC50 (M), inhibition of 5 pM human IL-33 activation of HEK293/hST2/NFkB-luciferase cells” value in test [2] came out at 1.2e-11 M. For the same molecule, the “IC50 (M), inhibition of 30 pM mouse IL-33 activation of HEK293/hST2/NFkB-luciferase cells” value in test [3] came to 1.4e-10 M. Further, the “IC50 (M), inhibition of 5 pM monkey IL-33 activation of HEK293/hST2/NFkB-luciferase cells” value in test [4] turned out to be 5.5e-12 M. Besides, the “% Maximum blocking” value in test [5] was 100%. Further, in test [6], the “60 nM Human IL-33 Bound (RU)” value worked out at 24 RU, the Kd is 0.0536 nM, the koff was 0.000307 s⁻¹ and the kon was found to be 5.72e+06 M⁻¹ s⁻¹. The molecule further had a t1/2 in test [6] of 38 min. The IC50 in test [7] was found to be 0.0169 nM.
